Our source for the percent depletion of H3.1-nucleosomes after IP anti-MPO values is paper PMC12327617.

In this assay the target is myeloperoxidase (MPO), two subunits MPOα and MPOβ (human (endogenous in HL-60)). Put plainly: co-IP; anti-MPO-coated magnetic beads with HL-60 NET extract; H3.1-nucleosomes left after the IP quantified with the H3.1-nucleosome immunoassay, depletion against the unprocessed sample.

For “H3.1-nucleosomes (nucleosomes containing the histone variant H3.1) of NETs (from UniProt P68431 1-136; P62805 1-103; P0C0S8 1-130; P62807 1-126) (complex)”, the percent depletion of H3.1-nucleosomes after IP anti-MPO stood at 30%.
